Results taken from patent CN115785274A (DONGGUAN PENGZHI BIOTECHNOLOGY CO LTD, dated 2023).

B1: Anti-HPG I 13A5单克隆抗体 (antibody, V domains shown)
VH: QVQLQQSGPELVRPGVSVKISCKGSGYTFTDHPMHWVKQSHAKSLEWIGVISTFSGHRNYNQKFKGKATMTVDKSSTTAYMELDRLTSEDSAIYYCARGDKSIYYGSYLSWGQGTLITVSA
VL: QIVLTQSPAIMSASPGEKVTMTCSASSSVSYMYWYQQKSGTSPKRWIYDTSKLTSGVPARFSGSGSGTSYSLTISSMETEDAATYFCQQWSSSPLTFGAGTKLELK

Target: T1, PG I蛋白(fitzgerald，30R-AP038) (UniProt P0DJD8 16-388)
T1 construct: Bought antigen; Pepsinogen I is a group of isozymogens (human genes PGA3, PGA4, PGA5); also called 胃蛋白酶原I; HPG I
Experiment: BLI, antibody captured on AMC sensor, PG I protein in a dilution series in PBST

T1 sequence (P0DJD8 16-388): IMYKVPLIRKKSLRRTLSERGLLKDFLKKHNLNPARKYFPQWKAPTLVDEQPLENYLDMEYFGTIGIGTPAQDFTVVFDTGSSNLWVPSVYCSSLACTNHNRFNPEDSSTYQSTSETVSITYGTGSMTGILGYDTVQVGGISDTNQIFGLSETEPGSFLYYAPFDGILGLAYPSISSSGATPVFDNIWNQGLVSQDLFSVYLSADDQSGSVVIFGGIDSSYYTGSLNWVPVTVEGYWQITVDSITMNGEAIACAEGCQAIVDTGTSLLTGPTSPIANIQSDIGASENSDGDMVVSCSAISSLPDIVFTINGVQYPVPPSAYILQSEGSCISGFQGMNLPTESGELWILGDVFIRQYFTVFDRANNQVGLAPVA

Row | Kd | koff | kon | Molecule
1 | 0.271 nM | 0.000529 s⁻¹ | 1.95e+06 M⁻¹ s⁻¹ | 对照抗体 (antibody)
2 | 0.0275 nM | 0.000536 s⁻¹ | 1.95e+07 M⁻¹ s⁻¹ | B1
